Assay results reported in patent US20220267469A1 (LIPUM, published 2022).

T1: Biotinylated human BSSL (human, UniProt P19835 21-753, Biotinylated on glycosacarides, 30-40 biotin/BSSL)
T1 construct: hBSSL biotinylated in house; also called b-hBSSL; human BSSL-biotin
T1 sequence: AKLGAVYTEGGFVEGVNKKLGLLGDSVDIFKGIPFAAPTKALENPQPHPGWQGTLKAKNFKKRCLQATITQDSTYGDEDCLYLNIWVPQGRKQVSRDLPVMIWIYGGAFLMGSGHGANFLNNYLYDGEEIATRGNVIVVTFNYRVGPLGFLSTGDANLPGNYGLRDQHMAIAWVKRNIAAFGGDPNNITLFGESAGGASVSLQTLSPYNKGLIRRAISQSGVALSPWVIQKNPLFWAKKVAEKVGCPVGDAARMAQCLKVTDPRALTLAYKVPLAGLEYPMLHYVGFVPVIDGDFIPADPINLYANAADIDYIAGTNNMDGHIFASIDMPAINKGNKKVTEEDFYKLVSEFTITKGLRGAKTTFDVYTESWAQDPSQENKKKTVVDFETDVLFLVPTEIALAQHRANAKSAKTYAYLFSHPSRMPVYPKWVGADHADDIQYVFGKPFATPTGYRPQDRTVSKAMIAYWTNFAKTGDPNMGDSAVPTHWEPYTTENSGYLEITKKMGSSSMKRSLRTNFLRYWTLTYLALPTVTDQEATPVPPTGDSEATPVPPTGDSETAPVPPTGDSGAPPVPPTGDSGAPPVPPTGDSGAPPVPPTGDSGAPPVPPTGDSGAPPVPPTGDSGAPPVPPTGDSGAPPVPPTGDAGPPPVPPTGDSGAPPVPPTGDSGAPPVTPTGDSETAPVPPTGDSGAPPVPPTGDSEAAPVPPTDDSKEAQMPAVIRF

T2: Human BSSL (bile salt-stimulated lipase), native (human, UniProt P19835 21-753)
T2 construct: Native full-length protein purified from human milk (Astra Hässle AB); also called hBSSL; non-biotinylated human BSSL
T2 sequence: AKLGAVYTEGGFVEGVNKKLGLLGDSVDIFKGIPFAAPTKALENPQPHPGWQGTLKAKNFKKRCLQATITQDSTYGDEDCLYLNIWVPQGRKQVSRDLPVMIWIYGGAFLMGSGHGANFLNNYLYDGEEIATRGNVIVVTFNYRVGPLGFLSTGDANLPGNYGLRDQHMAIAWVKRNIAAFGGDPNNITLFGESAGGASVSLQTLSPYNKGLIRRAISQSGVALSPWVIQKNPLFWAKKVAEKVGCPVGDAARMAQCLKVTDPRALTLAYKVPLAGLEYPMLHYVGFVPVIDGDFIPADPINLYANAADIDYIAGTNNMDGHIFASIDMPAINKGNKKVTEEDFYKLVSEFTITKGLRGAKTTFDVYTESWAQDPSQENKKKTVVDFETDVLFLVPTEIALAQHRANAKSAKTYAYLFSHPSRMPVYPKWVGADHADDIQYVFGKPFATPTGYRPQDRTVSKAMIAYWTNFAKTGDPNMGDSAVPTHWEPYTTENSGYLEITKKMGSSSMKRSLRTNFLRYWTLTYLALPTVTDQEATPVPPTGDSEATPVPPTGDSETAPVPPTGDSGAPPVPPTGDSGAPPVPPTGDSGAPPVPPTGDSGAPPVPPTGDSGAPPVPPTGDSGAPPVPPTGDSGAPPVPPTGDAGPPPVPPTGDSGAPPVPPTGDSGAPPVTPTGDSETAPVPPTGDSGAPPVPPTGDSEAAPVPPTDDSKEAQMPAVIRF

T3: Mouse BSSL, recombinant (mouse, UniProt Q64285 21-599)
T3 construct: Bought (R&D Systems, Cat. no 5658-CE); also called mBSSL; murine BSSL
T3 sequence: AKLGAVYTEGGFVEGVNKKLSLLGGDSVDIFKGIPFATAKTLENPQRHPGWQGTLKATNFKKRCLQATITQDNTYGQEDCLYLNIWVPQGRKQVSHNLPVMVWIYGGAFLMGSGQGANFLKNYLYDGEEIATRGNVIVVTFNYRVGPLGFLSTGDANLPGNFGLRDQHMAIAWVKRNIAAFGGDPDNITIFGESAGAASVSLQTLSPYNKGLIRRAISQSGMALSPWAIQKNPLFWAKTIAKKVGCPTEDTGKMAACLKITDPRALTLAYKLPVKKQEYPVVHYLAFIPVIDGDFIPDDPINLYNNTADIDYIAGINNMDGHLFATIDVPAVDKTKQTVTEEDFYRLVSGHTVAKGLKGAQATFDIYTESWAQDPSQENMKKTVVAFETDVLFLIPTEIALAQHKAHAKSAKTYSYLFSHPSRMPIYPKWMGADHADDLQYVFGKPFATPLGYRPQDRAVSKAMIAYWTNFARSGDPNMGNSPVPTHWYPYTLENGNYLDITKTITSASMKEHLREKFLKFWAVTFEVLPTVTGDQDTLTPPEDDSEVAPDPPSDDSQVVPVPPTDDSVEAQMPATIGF

B1: S-SL048-14 hIgG4 S228P (antibody, V domains shown)
VH: QVQLVQSGAEVKKPGASVKVSCKASGYTFTSYNMHWVRQAPGQGLEWMGVINPGDGATSYAQKFKGRVTMTRDTSTSTVYMELSSLRSEDTAVYYCARDYYGSSPLGYWGQGTLVTVSS
VL: DIQMTQSPSSLSASVGDRVTITCRASPSISYLNWYQQKPGKAPKLLIYATSRLPSGVPSRFSGSGSGTDFTLTISSLQPEDFATYYCQQRSSSPTFGQGTKLEIK
notes: Tested as human IgG4 S228P
B2: S-SL048-74 hIgG4 S228P (antibody, V domains shown)
VH: QVQLVQSGAEVKKPGASVKVSCKASGYTFTSYNMHWVRQAPGQGLEWIGVINPGDGATSYAQKFQGRVTMTRDTSTSTVYMELSSLRSEDTAVYYCARDYYGSSPLGYWGQGTLVTVSS
VL: DIQMTQSPSSLSASVGDRVTITCRASQSISYLNWYQQKPGKAPKLLIYAASSLASGVPSRFSGSGSGTDFTLTISSLQPEDFATYYCHQRSSSPTFGQGTKLEIK
notes: Tested as human IgG4 S228P
B3: S-SL048-107 hIgG4 S228P (antibody, V domains shown)
VH: QVQLVQSGAEVKKPGASVKVSCKASGYTFTSYNMHWVRQAPGQGLEWMGVINPGDGATSYNQKFQGRVTMTRDTSTSTVYMELSSLRSEDTAVYYCARDYYGSSPLGYWGQGTLVTVSS
VL: DIQMTQSPSSLSASVGDRVTITCRASPSISYLNWYQQKPGKAPKLLIYATSSLPSGVPSRFSGSGSGTDFTLTISSLQPEDFATYYCQQRSSSPTFGQGTKLEIK
notes: Tested as human IgG4 S228P
B4: S-SL048-131 hIgG4 S228P (antibody, V domains shown)
VH: QVQLVQSGAEVKKPGASVKVSCKASGYTFTSYNMHWVRQAPGQGLEWIGVINPGDGATSYAQKFKGRVTMTRDTSTSTVYMELSSLRSEDTAVYYCARDYYGSSPLGYWGQGTLVTVSS
VL: DIQMTQSPSSLSASVGDRVTITCRASPSISYLNWYQQKPGKAPKLLIYAASKLASGVPSRFSGSGSGTDFTLTISSLQPEDFATYYCHQRSSSPTFGQGTKLEIK
notes: Tested as human IgG4 S228P
B5: S-SL048-38 hIgG4 S228P (antibody, V domains shown)
VH: QVQLVQSGAEVKKPGASVKVSCKASGYTFTSYNMHWVRQAPGQGLEWMGVINPGDGATSYAQKFQGRVTMTRDTSTSTVYMELSSLRSEDTAVYYCARDYYGSSPLGYWGQGTLVTVSS
VL: DIQMTQSPSSLSASVGDRVTITCRASPSISYLNWYQQKPGKAPKLLIYATSSLASGVPSRFSGSGSGTDFTLTISSLQPEDFATYYCQQRSSSPTFGQGTKLEIK
notes: Tested as human IgG4 S228P
B6: S-SL048-109 hIgG4 S228P (antibody, V domains shown)
VH: QVQLVQSGAEVKKPGASVKVSCKASGYTFTSYNMHWVRQAPGQGLEWMGVINPSDGATSYAQKFKGRVTMTRDTSTSTVYMELSSLRSEDTAVYYCARDYYGSSPLGYWGQGTLVTVSS
VL: DIQMTQSPSSLSASVGDRVTITCRASPSISYLNWYQQKPGKAPKLLIYATSRLASGVPSRFSGSGSGTDFTLTISSLQPEDFATYYCQQRSSSPTFGQGTKLEIK
notes: Tested as human IgG4 S228P
B7: S-SL048-125 hIgG4 S228P (antibody, V domains shown)
VH: QVQLVQSGAEVKKPGASVKVSCKASGYTFTSYNMHWVRQAPGQGLEWIGVINPGDGATSYAQKFQGRVTMTRDTSTSTVYMELSSLRSEDTAVYYCARDYYGSSPLGYWGQGTLVTVSS
VL: DIQMTQSPSSLSASVGDRVTITCRASSSISYLHWYQQKPGKAPKLLIYAASRLPSGVPSRFSGSGSGTDFTLTISSLQPEDFATYYCHQRSSYPTFGQGTKLEIK
notes: Tested as human IgG4 S228P
B8: S-SL048-40 hIgG4 S228P (antibody, V domains shown)
VH: QVQLVQSGAEVKKPGASVKVSCKASGYTFTSYNMHWVRQAPGQGLEWIGVINPSDGATSYAQKFQGRVTMTRDTSTSTVYMELSSLRSEDTAVYYCARDYYGSSPLGYWGQGTLVTVSS
VL: DIQMTQSPSSLSASVGDRVTITCRASSSISYLNWYQQKPGKAPKLLIYAASRLPSGVPSRFSGSGSGTDFTLTISSLQPEDFATYYCQQRSSSPTFGQGTKLEIK
notes: Tested as human IgG4 S228P
B9: S-SL048-108 hIgG4 S228P (antibody, V domains shown)
VH: QVQLVQSGAEVKKPGASVKVSCKASGYTFTSYNMHWVRQAPGQGLEWIGVINPSDGATSYAQKFKGRVTMTRDTSTSTVYMELSSLRSEDTAVYYCARDYYGSSPLGYWGQGTLVTVSS
VL: DIQMTQSPSSLSASVGDRVTITCSASPSISYLNWYQQKPGKAPKLLIYATSSLASGVPSRFSGSGSGTDFTLTISSLQPEDFATYYCQQRSSSPTFGQGTKLEIK
notes: Tested as human IgG4 S228P

What was measured:
[1] = target: T1, Biotinylated human BSSL; test: flow cytometry displacement assay; 0.5 ug antibody, 1 ug b-hBSSL
Protocol: (§1) The 28 BSSL-specific hIgG4 antibodies and the five reference antibodies at different concentrations (ranging from 0.5 μg to 3.0 μg per reaction; see Table 10) were added to b-hBSSL (1 μg per reaction, see Table 2) in round-bottom polystyrene tubes, lx PBS (pH 7.4) was added to a final volume of 20 μl and the antibody/b-hBSSL mixtures were incubated for 30 min. at +4° C. to facilitate binding of antibodies to BSSL. Buffy coat (50 μl) was then added to each antibody/b-hBSSL mixture and incubation continued for another 30 min at +4° C. Thereafter, 2 ml of FACS lysing solution (BD Biosciences) was added and the cells were incubated for 10 min at room temperature in order to lyse erythrocytes and fix the white blood cells. The cells were then centrifuged for 5 min. at 200×g, the resulting pellets were washed by adding 2 ml of FACS buffer (1×PBS supplemented with 1% FCS and 0.1% NaN3) and centrifuged again. Finally, the supernatants were discarded and the cells were resuspended in the last drop of liquid, approximately 50 μl.
(§2) 5 μl of BV421-labelled anti-human CD14 (BD Biosciences) and 5 μl of BB515-labelled streptavidin (BD Biosciences) was added to each tube and incubated for 30 min, at +4° C., protected from light. Thereafter, cells were washed twice with FACS buffer, resuspended in 500 μl FACS buffer, and run on BD LSRII flow cytometer (BD Biosciences). Finally, data were analyzed using FlowJo software (BD Biosciences).

[2] = target: T2, Human BSSL (bile salt-stimulated …); test: SPR single cycle kinetics, hIgG4 S228P captured by anti-Fab
Protocol: (§3) Kinetic parameters of the hIgG4 S228P clones were determined by SPR using BIACORE® T200 (GE Healthcare). Single cycle kinetics was used to measure the affinity of the purified hIgG4 molecules to human and mouse BSSL. An anti-Fab antibody (GE Healthcare, #28958325) was immobilized on a CM5 S sensor chip by primary amine coupling using NHS-EDC chemistry. hIgG4 was captured by the anti-Fab antibody, and subsequently, five different concentrations of hBSSL (1:5 dilutions starting from 50 nM) or mBSSL (1:5 dilutions starting from 500 nM) were injected over the surface. The sensor chip surface was regenerated with 10 mM glycine-HCl pH 2.1. For binding to human BSSL, single cycle kinetic data was fitted to a 1:1 binding model and kinetic parameters were retrieved using software BlAevaluation. For mouse BSSL, a steady state analysis was performed by plotting the response level at equilibrium against each concentration, and KD values were retrieved by the BlAevalution software.

[3] = target: T3, Mouse BSSL, recombinant; test: SPR steady state, hIgG4 S228P captured by anti-Fab
Protocol: as §3

[4] = target: T1, Biotinylated human BSSL; test: flow cytometry displacement assay; 1.0 ug antibody, 1 ug b-hBSSL
Protocol: as §1, §2

[5] = target: T1, Biotinylated human BSSL; test: flow cytometry displacement assay; 1.5 ug antibody, 1 ug b-hBSSL
Protocol: as §1, §2

[6] = target: T1, Biotinylated human BSSL; test: flow cytometry displacement assay; 3.0 ug antibody, 1 ug b-hBSSL
Protocol: as §1, §2

Binder	percentage reduction of b-hBSSL binding to CD14+ monocytes [1]	Kd [2]	Kd [3]	percentage reduction of b-hBSSL binding to CD14+ monocytes [4]	percentage reduction of b-hBSSL binding to CD14+ monocytes [5]	percentage reduction of b-hBSSL binding to CD14+ monocytes [6]
B1	11%	0.0009 µM	0.089 µM	32%	48%	56%
B2	–	0.0048 µM	0.021 µM	–	29%	52%
B3	–	0.0012 µM	0.098 µM	–	37%	49%
B4	–	0.0027 µM	0.063 µM	–	31%	58%
B5	6%	0.001 µM	0.067 µM	44%	52%	51%
B6	–	0.0014 µM	0.353 µM	–	38%	51%
B7	–	0.0021 µM	0.123 µM	–	9%	33%
B8	20%	0.001 µM	0.087 µM	28%	44%	53%
B9	–	0.0013 µM	0.149 µM	–	41%	48%
